pKd: −log10 of the molar value.
How the values were obtained:
[1] = target: HBcAg (Hepatitis B virus core protein, 21 kDa) (Hepatitis B virus) (UniProt P03146); conditions: affinity qPCR; 7.6 nM HBcAg, 1 nM DNA
[2] = target: HBcAg (Hepatitis B virus core protein, 21 kDa) (Hepatitis B virus) (UniProt P03146); conditions: affinity qPCR on Ni-NTA plate; 0.1 nM aptamer, 0.1-5 nM protein; 20 mM Tris-HCl pH 7.6, 5 mM KCl, 100 mM NaCl, 5 mM MgCl2, 1 mM CaCl2, RT 1 h

Sequence of HBcAg (Hepatitis B virus core protein, 21 kDa) (Hepatitis B virus) (P03146 whole entry): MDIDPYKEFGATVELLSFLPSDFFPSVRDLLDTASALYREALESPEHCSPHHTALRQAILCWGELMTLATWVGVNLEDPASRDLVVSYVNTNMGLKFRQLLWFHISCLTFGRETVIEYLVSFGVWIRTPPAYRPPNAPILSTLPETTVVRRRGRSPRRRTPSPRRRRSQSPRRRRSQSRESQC

| Sequence | binding signal [1] [% bound] | pKd [2] |
| --- | --- | --- |
| AGCAGCACAGAGGTCAGATGACATCTAGAACCAACGGTTCTGTTTGATGAGAATTCGGCCCCTATGCGTGCTACCGTGAA [A-19] | 1.17 |  |
| AGCAGCACAGAGGTCAGATGAGGCCTGGTGATCGTGCCCAGGCCATATGAGCAAGGAACCCCTATGCGTGCTACCGTGAA [A-9] | 1 |  |
| AGCAGCACAGAGGTCAGATGGTTACATGCGCAGTAGCCGACGTACTCTGGTAAAAGGTAGCCTATGCGTGCTACCGTGAA [A-38] | 7.2 | 9.80 |
| AGCAGCACAGAGGTCAGATGTTGCATACGCCAAACAAGCATTGACAAGGTAACCCTGGGCCCTATGCGTGCTACCGTGAA [A-23] | 1.45 |  |
| AGCAGCACAGAGGTCAGATGTTTCCGAGGGAGTGGAATTAGCAAGGTGGAAGTGTTTCTACCTATGCGTGCTACCGTGAA [A-18] | 8.3 | 9.85 |
